Measured values taken from patent US20170086465A1 (TECHNION RESEARCH AND DEVELOPMENT FOUNDATION, published 2017).

Molecular target: the molecule itself
Test: cell-based or functional assay

B1: C. elegans aff-1 fused to a C-terminal FLAG tag (AFF-1::FLAG) (other)
chain: RLRRHHRKRRFVSSNFDEFYCGESAHAQSQFEEERESNSSKVSSVHSTQFNWGLDNTICIKLQNVVHVLKYERLEQRYPIENSYTFSVPLIDTNCKCHCYGFGTNDVCNVEKYADDRNCTTSSEFPTCYTKYHPAVEPLDCPVTSIPAKACCDIKLKPRDGRMFRAVKLQQPINDMIISHSIFANNSGKMMKVLGPDEFRINLLKGKEQFELTEYHRISVQLVASSPQQQLREGMYYFPEENHNDLREGKINEITESDLDKLGWYRRVGNDWQVATSGLLLRNAHKVVIKNCKGQVHMDQFSGTKNFVLRGTQYNDTYNERRVSDNNFVRSVKVDESSREITIVHEHGTAAQVSLKTDTRPNLTKSQSLLANFTGSITLDHDGNRMLNVTFFGVKGTVHIKMYVNDRKLIATFACTAQFGTSLKDDGSRISLPSTINQAQWVCILPDEQPTKSEICKWIPYEEKAMRTPRQEQSWSKGHSPCSQAECNSLKSGVSDLFPWIMNFDYFMAHGGDFTEWLKIGIHIVIAVGLLLLLILLFTKCLVPLACCSLSIPFKNRNKKKKKKNSSDY
  infection of BHK-AFF-1 cells by VSVΔG-AFF-1 pseudovirus (GFP-expressing cells): 600 fold
